The results in this text go back to patent US20260217779.

Where a chain is given by its changes, count along the chain named.

For data set [1], the target named is T1, hITIP0035-G1T4k.one//VHn-G1T4h.one.H435R.
T1 chain 1: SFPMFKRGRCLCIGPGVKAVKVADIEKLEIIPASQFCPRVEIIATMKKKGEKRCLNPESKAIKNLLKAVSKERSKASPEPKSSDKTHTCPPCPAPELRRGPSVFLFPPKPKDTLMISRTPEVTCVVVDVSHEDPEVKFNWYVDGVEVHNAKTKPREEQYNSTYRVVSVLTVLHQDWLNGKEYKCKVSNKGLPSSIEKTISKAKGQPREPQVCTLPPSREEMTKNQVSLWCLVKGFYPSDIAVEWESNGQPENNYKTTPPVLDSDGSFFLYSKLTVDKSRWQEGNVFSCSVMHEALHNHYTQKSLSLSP
T1 chain 2: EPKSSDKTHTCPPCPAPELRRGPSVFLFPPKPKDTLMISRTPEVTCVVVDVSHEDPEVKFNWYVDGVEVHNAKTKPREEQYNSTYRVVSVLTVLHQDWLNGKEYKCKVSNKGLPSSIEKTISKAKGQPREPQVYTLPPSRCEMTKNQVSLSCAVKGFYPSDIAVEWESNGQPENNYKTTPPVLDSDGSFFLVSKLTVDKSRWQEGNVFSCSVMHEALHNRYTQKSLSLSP

Data set [2] concerns the target T2, hITIP0033-G1T4k.one//VHn-G1T4h.one.H435R.
T2 chain 1: T1 chain 1 with S1Q
T2 chain 2: T1 chain 2

Data set [3] deals with T3, hITIP0039-G1T4k.one//VHn-G1T4h.one.H435R.
T3 chain 1: T1 chain 1 with S1Y
T3 chain 2: T1 chain 2

The target in data set [4] is T4, hITIP0023-G1T4k.one//VHn-G1T4h.one.H435R.
T4 chain 1: T1 chain 1 with S1E
T4 chain 2: T1 chain 2

Data set [5] concerns the target T5, hCXCL11.0030-G1T4k.one//VHn-G1T4h.one.H435R.
T5 chain 1: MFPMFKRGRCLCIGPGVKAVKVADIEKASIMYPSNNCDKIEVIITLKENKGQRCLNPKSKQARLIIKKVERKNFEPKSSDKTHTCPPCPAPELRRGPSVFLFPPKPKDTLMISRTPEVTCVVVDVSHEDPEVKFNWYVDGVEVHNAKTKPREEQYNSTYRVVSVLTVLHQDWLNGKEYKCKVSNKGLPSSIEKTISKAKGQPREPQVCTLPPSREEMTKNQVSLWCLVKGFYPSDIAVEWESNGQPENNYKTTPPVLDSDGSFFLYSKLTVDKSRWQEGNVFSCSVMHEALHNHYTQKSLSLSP
T5 chain 2: T1 chain 2

For data set [6], the target named is T6, hCXCL11.0036-G1T4k.one//VHn-G1T4h.one.H435R.
T6 chain 1: T5 chain 1 with M1T
T6 chain 2: T1 chain 2

Data set [7] concerns the target T7, hITIP0021-G1T4k.one//VHn-G1T4h.one.H435R.
T7 chain 1: T1 chain 1 with S1A
T7 chain 2: T1 chain 2

Data set [8] addresses T8, hCXCL11.0031-G1T4k.one//VHn-G1T4h.one.H435R.
T8 chain 1: T5 chain 1 with M1N
T8 chain 2: T1 chain 2

B1: human dipeptidyl peptidase IV (human DPPIV, hDPPIV) (Biolegend, 764102) (protein)
chain: NKGTDDATADSRKTYTLTDYLKNTYRLKLYSLRWISDHEYLYKQENNILVFNAEYGNSSVFLENSTFDEFGHSINDYSISPDGQFILLEYNYVKQWRHSYTASYDIYDLNKRQLITEERIPNNTQWVTWSPVGHKLAYVWNNDIYVKIEPNLPSYRITWTGKEDIIYNGITDWVYEEEVFSAYSALWWSPNGTFLAYAQFNDTEVPLIEYSFYSDESLQYPKTVRVPYPKAGAVNPTVKFFVVNTDSLSSVTNATSIQITAPASMLIGDHYLCDVTWATQERISLQWLRRIQNYSVMDICDYDESSGRWNCLVARQHIEMSTTGWVGRFRPSEPHFTLDGNSFYKIISNEEGYRHICYFQIDKKDCTFITKGTWEVIGIEALTSDYLYYISNEYKGMPGGRNLYKIQLSDYTKVTCLSCELNPERCQYYSVSFSKEAKYYQLRCSGPGLPLYTLHSSVNDKGLRVLEDNSALDKMLQNVQMPSKKLDFIILNETKFWYQMILPPHFDKSKKYPLLLDVYAGPCSQKADTVFRLNWATYLASTENIIVASFDGRGSGYQGDKIMHAINRRLGTFEVEDQIEAARQFSKMGFVDNKRIAIWGWSYGGYVTSMVLGSGSGVFKCGIAVAPVSRWEYYDSVYTERYMGLPTPEDNLDHYRNSTVMSRAENFKQVEYLLIHGTADDNVHFQQSAQISKALVDVGVDFQAMWYTDEDHGIASSTAHQHIYTHMSHFIKQCFSLP
For B1, the “cleavage by hDPPIV (LC/MS mass)” value in data set [1], in data set [2], in data set [3], in data set [4], in data set [5] and in data set [6] was “showed no mass change suggestive of peptide bond cleavage by hDPPIV treatment” each time. The “cleavage by hDPPIV (LC/MS mass)” value in data set [7] and in data set [8] was “showed no mass change suggestive of peptide bond cleavage by hDPPIV treatment” in each case.
